In the supplement of paper PMC10567573:

B1: ADAMTS4 (parent)
chain: SFRKFRYGYNNVVTIPAGATHILV
B2: UBE2R2 (parent)
chain: DPQSGELPSERWNPTQNVRTILLS

Variants of: B1
Assay: protein stability index of a GFP-peptide fusion (GPS, HEK-293T) (PSI 1-6); higher = more stable
Conditions: c terminus: a fixed tail appended
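Further: lentivirally expressed fusions sorted by FACS into six bins by GFP to DsRed ratio, PSI derived from sequencing read proportions per bin multiplied by bin number.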

Protein stability index, by site and new letter:
F5: A 2.44, H 1.66, G 2.3, P 1.88, M 3.23, K 1.77, E 2.51, L 2.78, N 1.84, D 2.21, Q 1.92
F2: H 1.68, W 2.38, A 1.94, S 2.19, Q 2.91, E 1.79, V 1.99, C 3.07, I 2.03, G 2.97, P 2.15, T 1.62, N 1.76, Y 1.8, K 1.9, L 1.75, R 2.18, M 2.96, D 2.13
R3: M 1.83, A 2.45, G 2.75, Y 2.37, T 1.6, N 2.89, E 2.13, L 3.11, K 3.1, Q 2.14, V 2.99, I 3.31, W 2.24, H 1.76, S 2.58, D 1.61, F 3.06, C 3.97
S1: R 2.79, M 2.99, T 1.61, H 1.73, F 2.34, P 2.22, V 2.17, L 2.08, Q 2.67, I 2.62, E 3.35, A 4.18, D 2.25, N 2, C 2.8, K 2.07, Y 2.22
K4: F 2.78, E 1.51, P 3.29, M 2.08, N 3.74, L 2.71, S 2.6, W 3.02, C 2.55, H 2.56, D 1.76, T 2.68, A 3.08, Q 3.78, Y 3.11, V 1.97, G 2.05, R 2.88

Variants of: B2
Assay: as above
Conditions: c terminus: a fixed tail appended

Protein stability index: each site, then its substitutions
N13: C 2.78, V 3.17, A 3.78, H 3.3, L 3.47, F 2.66, W 2.87, T 3.76, Y 3.16, E 3.83, K 3.88, P 3.71, Q 3.87, I 2.87, R 3.31, D 4.22, S 4, M 3.79, G 2.46
V18: Q 4.2, H 4, R 4.14, K 3.78, E 4.06, I 3.97, M 3.3, A 4.38, D 3.83, T 4.04, G 4, Y 3.34, C 3.9, S 3.92, W 3.24, F 3.61, P 3.63, N 4, L 3.27
Q16: V 3.11, N 3.48, S 3.58, Y 2.54, A 3.67, E 2.95, P 3.24, I 2.83, H 3.44, D 3.97, C 3.04, L 2.88, K 3.51, F 2.5, W 2.54, R 3.81, T 4.14, G 3.53, M 3.46
S24: Y 2.04, I 1.84, L 1.56, K 4.34, Q 4.07, A 2.82, H 3.58, R 3.16, W 1.61, V 2.81, M 2.23, D 4.43, C 2.35, G 3.4, F 1.82, T 3.14, P 3.95, N 3.86, E 4.23
R19: I 2.41, A 3.61, P 3.87, Q 3.81, T 3.21, K 3.95, C 3.05, H 3.43, D 4.43, V 2.28, E 4.76, S 4.08, W 1.85, M 2.86, L 2.61, Y 2.11, N 4.5, G 3.7, F 2.6
T15: A 3.15, P 3.14, E 3.6, L 2.86, S 3.39, R 3.76, C 3.26, V 3.48, K 3.5, G 3.53, N 3.89, Q 3.63, I 2.78, H 3.79, F 2.51, D 4.15, Y 3.22, M 2.86, W 2.13
L22: D 4.43, T 4.1, V 3.42, Q 4.25, Y 2.89, G 4.5, E 5.13, F 3.54, I 3.05, W 2.44, K 4.41, C 4.12, A 4.31, N 4.47, H 4.2, M 4.11, S 3.88, R 4.29, P 4.7
R11: S 3.56, Y 2.82, W 2.79, V 3.62, T 3.98
W12: M 4.1, C 3.94, Y 4.07, L 3.62, Q 4.44, G 4.33, I 4.35, P 4.4, K 4.54, A 4.61, V 4.2, E 4.71, N 4.48, D 4.81, T 4.72, F 3.92, H 4.08, S 4.67, R 4.31
P14: D 4.12, H 2.98, F 2.32, Q 3.93, W 3.12, G 3.71, A 3.34, M 3.09, L 2.79, E 4.08, R 4.28, K 3.56, N 3.17, V 3.48, S 3.69, T 4.13, Y 3.01, C 3.35, I 2.8
L23: A 4.23, F 3.44, D 4.91, P 4.34, E 4.47, V 3.34, S 4.08, H 4.09, Y 3.22, G 3.77, W 3.79, K 4.74, C 4.63, M 3.7, T 4.12, N 4.87, I 3.17, Q 4.65, R 4.5
N17: E 3.56, A 3.06, S 2.9, V 2.4, M 2.39, T 3.51, W 2.59, I 2.24, Q 3.6, L 2.54, K 3.23, F 2.75, G 4.3, D 3.99, Y 2.38, P 4.18, R 3.4, H 3.04
I21: G 4.81, W 3.55, A 5.11, M 4.12, S 4.33, H 4.49, F 3.96, Q 4.18, L 3.96, P 4.3, D 4.6, Y 3.14, E 4.53, R 4.52, V 3.9, T 4.26, C 4.33, K 4.61, N 4.6
T20: S 4.1, A 3.64, D 3.61, L 2.79, I 1.65, G 2.9, C 2.92, F 1.57, Y 2.46, R 3.32, M 3.67, W 2.93, P 3.79, V 2.05, H 3.6, K 4.43, E 3.19, N 3.71, Q 3.76
